Source: PMC5940305, “The Rab11-binding protein RELCH/KIAA1468 controls intracellular cholesterol distribution” (The Journal of Cell Biology, 2018)

Legend:
OSBP = target: T1, OSBP (Homo sapiens, UniProt P22059); experiment: liposome sterol transfer, DHE to dansyl-PE FRET; format: biochemical; details: lipid transfer substrate (not catalysis); with RELCH, Rab11a(Q70A)-His/GTP and myristoylated Arf1(Q71L)-Flag; RE-like donor and Golgi-like PI4P acceptor liposomes; 200 nM OSBP; pH 7.2; room temperatur
T1 construct: full-length, Flag-tagged, tag kept; 807 residues (deletion series ends at 807)

[1] = target: T2, GST-RELCH_(497-779) (Rab-binding domain) (mouse, UniProt Q148V7 497-779); experiment: pull-down; 10 µg GST-RELCH (RBD) on 20 µl Glutathione Sepharose 4B, 10 µg Rab11a (Q70A)-His loaded with GTP in 500 µl; immunoblot with Rab11 and GST antibodies; details: both partners purified
T2 construct: also called GST-RELCH (RBD); source: E. coli Rosetta II (pFAT2), purified (Ni-NTA agarose); not shown: GST, N-terminal, kept
T2 sequence (looked up): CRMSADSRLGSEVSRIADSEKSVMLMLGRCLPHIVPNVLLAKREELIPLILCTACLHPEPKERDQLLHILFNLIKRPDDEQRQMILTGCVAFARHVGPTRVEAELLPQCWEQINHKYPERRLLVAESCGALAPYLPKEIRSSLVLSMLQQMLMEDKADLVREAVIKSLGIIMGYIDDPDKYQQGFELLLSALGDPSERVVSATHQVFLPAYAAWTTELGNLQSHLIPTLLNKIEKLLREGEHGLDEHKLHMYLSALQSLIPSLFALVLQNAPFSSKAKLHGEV

untagged RELCH = target: T3, untagged RELCH (mouse, UniProt Q148V7 1-1216); experiment: silica bead-based liposome binding assay; silica beads coated with RE-like liposomes (DOGS-NTA(Ni), Rho-PE) prebound with 5 µM Rab11a (Q70A)-His, then 200 nM untagged RELCH, 30 min at 4°C in HKM buffer with 1 mM GTP and BSA; stained with Rab11 or RELCH antibodies; details: both partners purified
T3 construct: RELCH/KIAA1468, mouse, cDNA NM_173187.3, with an N-terminal PreScission protease recognition site; no limits are stated; Residues of the PreScission site may be left at the N-terminus after cleavage; source: E. coli XL-1 blue (pQE32), purified (Ni-NTA agarose), His tag removed with PreScission protease; not shown: His, N-terminal, cleaved
T3 sequence (looked up): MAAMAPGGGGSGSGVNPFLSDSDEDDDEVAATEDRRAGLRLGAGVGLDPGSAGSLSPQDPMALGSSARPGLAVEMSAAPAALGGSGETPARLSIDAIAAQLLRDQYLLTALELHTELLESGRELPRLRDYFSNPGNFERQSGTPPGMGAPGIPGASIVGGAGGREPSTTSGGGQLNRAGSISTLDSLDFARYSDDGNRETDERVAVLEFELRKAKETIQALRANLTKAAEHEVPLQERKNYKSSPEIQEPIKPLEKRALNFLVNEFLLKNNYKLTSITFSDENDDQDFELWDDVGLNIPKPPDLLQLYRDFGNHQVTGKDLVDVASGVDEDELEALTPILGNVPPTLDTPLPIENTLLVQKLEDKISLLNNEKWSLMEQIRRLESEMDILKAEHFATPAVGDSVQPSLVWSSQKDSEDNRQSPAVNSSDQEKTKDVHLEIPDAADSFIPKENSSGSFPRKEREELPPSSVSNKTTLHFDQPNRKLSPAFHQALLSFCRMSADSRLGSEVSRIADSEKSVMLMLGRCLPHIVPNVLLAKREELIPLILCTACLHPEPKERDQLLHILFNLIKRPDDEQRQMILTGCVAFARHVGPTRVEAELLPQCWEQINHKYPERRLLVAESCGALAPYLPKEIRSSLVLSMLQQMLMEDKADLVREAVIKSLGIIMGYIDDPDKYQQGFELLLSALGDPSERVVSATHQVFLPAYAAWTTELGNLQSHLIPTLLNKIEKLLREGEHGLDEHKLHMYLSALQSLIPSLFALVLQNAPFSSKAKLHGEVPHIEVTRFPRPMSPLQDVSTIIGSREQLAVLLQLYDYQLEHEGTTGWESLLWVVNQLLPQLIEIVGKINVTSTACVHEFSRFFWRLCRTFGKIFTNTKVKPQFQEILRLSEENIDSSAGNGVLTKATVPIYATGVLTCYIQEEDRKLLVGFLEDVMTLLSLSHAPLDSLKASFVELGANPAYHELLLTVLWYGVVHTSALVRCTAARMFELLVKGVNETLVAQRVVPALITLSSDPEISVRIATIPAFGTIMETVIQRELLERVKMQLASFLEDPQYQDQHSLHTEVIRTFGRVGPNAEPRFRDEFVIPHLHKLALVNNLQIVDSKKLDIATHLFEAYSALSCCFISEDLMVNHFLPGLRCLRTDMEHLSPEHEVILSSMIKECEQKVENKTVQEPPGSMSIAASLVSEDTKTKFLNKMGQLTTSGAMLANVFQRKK

His-RELCH [2] = target: T4, His-RELCH (mouse, UniProt Q148V7 1-1216); experiment: pull-down; 10 µg GST-Rab11a Q70A (GTP) on 20 µl Glutathione Sepharose 4B, 20 µg His-RELCH in 500 µl; immunoblot with RELCH and GST antibodies; details: both partners purified
T4 construct: RELCH/KIAA1468, mouse, cDNA NM_173187.3 amplified from a mouse embryo cDNA library; no limits are stated for this construct (deletion constructs are named by their ranges); also called purified recombinant RELCH; His-RELCH protein; source: E. coli XL-1 blue (pQE32tev), purified (Ni-NTA agarose); not shown: His, N-terminal, kept
T4 sequence (looked up): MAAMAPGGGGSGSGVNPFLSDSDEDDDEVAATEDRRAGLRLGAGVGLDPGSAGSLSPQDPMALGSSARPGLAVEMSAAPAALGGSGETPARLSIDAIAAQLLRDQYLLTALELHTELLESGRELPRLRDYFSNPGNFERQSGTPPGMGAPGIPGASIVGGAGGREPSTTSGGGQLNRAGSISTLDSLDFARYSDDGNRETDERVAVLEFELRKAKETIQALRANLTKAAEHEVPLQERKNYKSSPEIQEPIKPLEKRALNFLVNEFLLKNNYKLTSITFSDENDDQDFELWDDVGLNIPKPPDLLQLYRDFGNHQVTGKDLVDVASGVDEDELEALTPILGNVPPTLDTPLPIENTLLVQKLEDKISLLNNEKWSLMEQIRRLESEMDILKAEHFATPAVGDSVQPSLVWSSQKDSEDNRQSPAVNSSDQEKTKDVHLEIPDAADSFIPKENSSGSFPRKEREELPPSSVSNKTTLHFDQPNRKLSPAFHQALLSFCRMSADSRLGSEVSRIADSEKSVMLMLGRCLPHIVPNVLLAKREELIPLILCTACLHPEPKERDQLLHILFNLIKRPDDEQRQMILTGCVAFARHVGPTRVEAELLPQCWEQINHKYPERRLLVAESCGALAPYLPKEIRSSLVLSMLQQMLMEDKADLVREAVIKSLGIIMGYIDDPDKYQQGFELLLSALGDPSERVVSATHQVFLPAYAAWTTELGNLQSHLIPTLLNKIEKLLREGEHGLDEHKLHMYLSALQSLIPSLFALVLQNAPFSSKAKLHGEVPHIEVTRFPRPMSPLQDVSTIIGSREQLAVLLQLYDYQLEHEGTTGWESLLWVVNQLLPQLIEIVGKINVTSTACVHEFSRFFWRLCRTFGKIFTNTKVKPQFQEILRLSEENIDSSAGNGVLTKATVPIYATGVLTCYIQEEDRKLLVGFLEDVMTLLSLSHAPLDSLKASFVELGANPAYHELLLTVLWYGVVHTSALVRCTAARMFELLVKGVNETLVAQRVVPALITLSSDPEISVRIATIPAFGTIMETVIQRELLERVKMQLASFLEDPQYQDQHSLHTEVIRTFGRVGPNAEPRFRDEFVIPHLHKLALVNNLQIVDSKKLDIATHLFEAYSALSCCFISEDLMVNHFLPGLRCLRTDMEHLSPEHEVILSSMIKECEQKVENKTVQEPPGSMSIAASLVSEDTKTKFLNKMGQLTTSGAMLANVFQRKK

His-RELCH [3] = target: T4, His-RELCH; experiment: pull-down; 0.5 µg His-RELCH on Ni-NTA beads, 0.5 µg Flag-OSBP in 20 mM Hepes-NaOH pH 7.5, 100 mM NaCl, 5 mM MgCl2 with ethanol, cholesterol or 25-OH, 1 h at 4°C; immunoblot with His and Flag antibodies; details: both partners purified

T1 sequence (P84077 2-181 Q71L partner, one chain of several): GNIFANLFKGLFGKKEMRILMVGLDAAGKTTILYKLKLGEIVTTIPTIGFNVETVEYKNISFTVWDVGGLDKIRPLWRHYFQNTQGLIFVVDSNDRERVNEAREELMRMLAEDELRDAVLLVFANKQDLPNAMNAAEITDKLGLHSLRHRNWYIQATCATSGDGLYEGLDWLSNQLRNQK

CC(C)[C@@H](C)/C=C/[C@@H](C)[C@H]1CC[C@H]2C3=CC=C4C[C@@H](O)CC[C@]4(C)C3=CC[C@]12C [DHE, dehydroergosterol]
liposome sterol transfer, DHE to dansyl-PE FRET (OSBP): the DHE transfer occurred in a RELCH dose-dependent manner

B1: Rab11a (Q70A)-His, loaded with GTP (natural protein, mouse, UniProt P62492 1-216, looked up)
chain: MGTRDDEYDYLFKVVLIGDSGVGKSNLLSRFTRNEFNLESKSTIGVEFATRSIQVDGKTIKAQIWDTAGAERYRAITSAYYRGAVGALLVYDIAKHLTYENVERWLKELRDHADSNIVIMLVGNKSDLRHLRAVPTDEARAFAEKNGLSFIETSALDSTNVEAAFQTILTEIYRIVSQKQMSDRRENDMSPSNNVVPIHVPPTTENKPKVQCCQNI
notes: Rab11a, mouse, GTP-locked mutant Q70A, cloned without a stop codon into pET28c; Loaded with GTP in the assays; on liposomes it is held through its His tag by DOGS-NTA(Ni); also called His6×-tagged Rab11a-GTP; Rab11a-GTP; source: E. coli Rosetta II (pET28c), purified (cOmplete His-tag purification resin, EDTA wash, nucleotide-free); not shown: His6, C-terminal, kept
binding result [1]: binds
binding result (untagged RELCH): binds

B2: GST-Rab11a Q70A, loaded with GTP (natural protein, UniProt P62491 1-216, looked up)
chain: MGTRDDEYDYLFKVVLIGDSGVGKSNLLSRFTRNEFNLESKSTIGVEFATRSIQVDGKTIKAQIWDTAGAERYRAITSAYYRGAVGALLVYDIAKHLTYENVERWLKELRDHADSNIVIMLVGNKSDLRHLRAVPTDEARAFAEKNGLSFIETSALDSTNVEAAFQTILTEIYRIVSQKQMSDRRENDMSPSNNVVPIHVPPTTENKPKVQCCQNI
notes: Rab11a; GTP-locked mutant Q70A; the pFAT2 His-GST-Rab constructs were made as in Haas et al., 2005 and Yoshimura et al., 2007; also called GTP-loaded Rab11a; GST-Rab11-GTP; source: E. coli Rosetta II (pFAT2), purified (Ni-NTA agarose); not shown: GST, N-terminal, kept
binding result (His-RELCH [2]): binds

B3: Flag-OSBP, full length (natural protein, human, UniProt P22059 1-807, looked up)
chain: MAATELRGVVGPGPAAIAALGGGGAGPPVVGGGGGRGDAGPGSGAASGTVVAAAAGGPGPGAGGVAAAGPAPAPPTGGSGGSGAGGSGSAREGWLFKWTNYIKGYQRRWFVLSNGLLSYYRSKAEMRHTCRGTINLATANITVEDSCNFIISNGGAQTYHLKASSEVERQRWVTALELAKAKAVKMLAESDESGDEESVSQTDKTELQNTLRTLSSKVEDLSTCNDLIAKHGTALQRSLSELESLKLPAESNEKIKQVNERATLFRITSNAMINACRDFLMLAQTHSKKWQKSLQYERDQRIRLEETLEQLAKQHNHLERAFRGATVLPANTPGNVGSGKDQCCSGKGDMSDEDDENEFFDAPEIITMPENLGHKRTGSNISGASSDISLDEQYKHQLEETKKEKRTRIPYKPNYSLNLWSIMKNCIGKELSKIPMPVNFNEPLSMLQRLTEDLEYHELLDRAAKCENSLEQLCYVAAFTVSSYSTTVFRTSKPFNPLLGETFELDRLEENGYRSLCEQVSHHPPAAAHHAESKNGWTLRQEIKITSKFRGKYLSIMPLGTIHCIFHATGHHYTWKKVTTTVHNIIVGKLWIDQSGEIDIVNHKTGDKCNLKFVPYSYFSRDVARKVTGEVTDPSGKVHFALLGTWDEKMECFKVQPVIGENGGDARQRGHEAEESRVMLWKRNPLPKNAENMYYFSELALTLNAWESGTAPTDSRLRPDQRLMENGRWDEANAEKQRLEEKQRLSRKKREAEAMKATEDGTPYDPYKALWFERKKDPVTKELTHIYRGEYWECKEKQDWSSCPDIF
notes: OSBP, human, amplified from pOTB7-OSBP, in pcDNA5/FRT/TO-Flag; also called Flag-tagged OSBP; source: HEK293FT, transfected, in lysate; Flp-In–293, transfected, in lysate; not shown: Flag, N-terminal, kept
binding result (His-RELCH [3]): binds
